pKd: −log10 of the molar value.
What was measured:
[1] = molecular target: recombinant human mis-disordered tau protein (tau151-391/4R) (human) (UniProt P10636); assay: reference line in the plot 'Affinity against pathological tau', axis KD (nM); SPR (Example 10)
Human Tau2N4R = assay: SPR; literature table, Jadhav et al. 2019; AFFINITY 'nd.'
Human Tau2N4R, sequence (single chain, as listed by the source limits assumed): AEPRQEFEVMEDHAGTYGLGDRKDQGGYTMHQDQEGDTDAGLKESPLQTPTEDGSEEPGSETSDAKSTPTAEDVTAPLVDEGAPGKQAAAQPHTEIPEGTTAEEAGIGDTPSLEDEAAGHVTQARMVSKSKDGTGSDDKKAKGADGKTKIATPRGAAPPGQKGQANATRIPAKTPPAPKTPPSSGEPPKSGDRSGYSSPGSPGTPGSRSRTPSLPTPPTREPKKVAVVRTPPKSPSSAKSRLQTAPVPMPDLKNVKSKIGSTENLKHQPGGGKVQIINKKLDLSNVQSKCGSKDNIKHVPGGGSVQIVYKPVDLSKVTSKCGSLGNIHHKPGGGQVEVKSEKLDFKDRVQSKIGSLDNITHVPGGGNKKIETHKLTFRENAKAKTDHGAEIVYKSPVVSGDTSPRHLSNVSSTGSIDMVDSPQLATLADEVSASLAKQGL

recombinant human mis-disordered tau protein (tau151-391/4R) (human), sequence (P10636 468-708): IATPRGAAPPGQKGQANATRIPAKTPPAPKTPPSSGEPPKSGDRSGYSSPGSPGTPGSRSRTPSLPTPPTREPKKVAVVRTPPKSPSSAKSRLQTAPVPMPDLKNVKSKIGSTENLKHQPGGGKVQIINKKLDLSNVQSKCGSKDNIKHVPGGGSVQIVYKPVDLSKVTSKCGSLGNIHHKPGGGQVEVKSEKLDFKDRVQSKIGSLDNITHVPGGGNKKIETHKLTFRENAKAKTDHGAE

pKd [1]	AVIDITY (Human Tau2N4R)	Substance
9.40	–	AADvac2
–	0.4 pM	HJ8.5 (antibody)
–	100 pM	HJ9.3 (antibody)
–	7000 pM	HJ9.4 (antibody)
